Assay results published in article PMC10516904, “Dual enzyme-powered chemotactic cross β amyloid based functional nanomotors” (Nature Communications, 2023).

Biological target: the molecule itself
Test: TEM, SEM, AFM, CD and FTIR of the assembled peptide; peptide assembled in 40% acetonitrile/water with 0.1% TFA for a month

B1: Ac-KLVFFAL-CONH2 (peptide)
peptide: Ac-KLVFFAL-NH2
notes: also called Ac-KL nanotubes; amylobots (chassis); source: short nanotubes by probe sonication
Does B1 bind?
Result: binds
